# Measurements published in PMC4778762, “Acetylation of Lysine 201 Inhibits the DNA-Binding Ability of PhoP to Regulate Salmonella Virulence”.
# T1: PhoP K201A K201A (Salmonella enterica serovar Typhimurium) (UniProt D0ZV90)
# T1 sequence: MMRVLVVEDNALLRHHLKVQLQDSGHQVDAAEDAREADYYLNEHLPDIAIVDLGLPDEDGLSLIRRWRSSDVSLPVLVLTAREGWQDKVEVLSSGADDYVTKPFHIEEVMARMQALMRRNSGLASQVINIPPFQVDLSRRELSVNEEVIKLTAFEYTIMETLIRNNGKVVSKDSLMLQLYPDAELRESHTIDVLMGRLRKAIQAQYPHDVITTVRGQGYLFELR
# T2: PhoP K201R K201R (Salmonella enterica serovar Typhimurium) (UniProt D0ZV90)
# T2 sequence: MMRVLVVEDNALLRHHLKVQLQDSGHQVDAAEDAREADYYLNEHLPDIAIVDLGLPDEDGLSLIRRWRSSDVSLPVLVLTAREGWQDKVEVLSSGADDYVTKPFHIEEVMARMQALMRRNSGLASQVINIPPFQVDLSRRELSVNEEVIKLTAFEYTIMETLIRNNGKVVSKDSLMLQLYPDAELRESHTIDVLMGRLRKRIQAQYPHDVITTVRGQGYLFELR
# T3: PhoP K201Q K201Q (Salmonella enterica serovar Typhimurium) (UniProt D0ZV90)
# T3 sequence: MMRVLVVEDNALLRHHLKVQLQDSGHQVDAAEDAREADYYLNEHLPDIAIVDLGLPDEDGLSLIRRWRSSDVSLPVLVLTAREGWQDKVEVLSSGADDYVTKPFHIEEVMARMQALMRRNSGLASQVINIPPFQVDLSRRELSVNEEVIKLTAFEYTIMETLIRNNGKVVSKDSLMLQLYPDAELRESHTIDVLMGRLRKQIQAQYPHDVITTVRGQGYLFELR
# T4: PhoP WT (Salmonella enterica serovar Typhimurium) (UniProt D0ZV90)
# T4 sequence: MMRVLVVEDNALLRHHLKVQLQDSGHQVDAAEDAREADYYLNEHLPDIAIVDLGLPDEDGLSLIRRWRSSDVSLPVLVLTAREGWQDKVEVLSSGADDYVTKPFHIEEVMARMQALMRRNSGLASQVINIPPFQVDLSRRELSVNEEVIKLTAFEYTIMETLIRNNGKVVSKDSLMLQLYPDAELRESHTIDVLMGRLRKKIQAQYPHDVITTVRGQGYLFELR
# B1: PhoP box of phoP promoter (dsDNA)
# DNA 1: GGGGTCTGGTTTATTAACTGTTTATCCGGGG
# DNA 2: CCCCGGATAAACAGTTAATAAACCAGACCCC
# How the values were obtained:
# [1] = biological target: T1, PhoP K201A K201A (Salmonella enterica serovar Typhimurium); experiment: EMSA; conditions: EMSA: 25 mM Tris-HCl pH 8.0, 50 mM KCl, 0.5 mM EDTA, 10% glycerol, 37 C 30 min, gel at 4 C; SPR: Biacore 2000, streptavidin chip, buffer not given
# [2] = biological target: T2, PhoP K201R K201R (Salmonella enterica serovar Typhimurium); experiment: EMSA; conditions: EMSA: 25 mM Tris-HCl pH 8.0, 50 mM KCl, 0.5 mM EDTA, 10% glycerol, 37 C 30 min, gel at 4 C; SPR: Biacore 2000, streptavidin chip, buffer not given
# [3] = biological target: T3, PhoP K201Q K201Q (Salmonella enterica serovar Typhimurium); experiment: EMSA; conditions: EMSA: 25 mM Tris-HCl pH 8.0, 50 mM KCl, 0.5 mM EDTA, 10% glycerol, 37 C 30 min, gel at 4 C; SPR: Biacore 2000, streptavidin chip, buffer not given
# [4] = biological target: T4, PhoP WT (Salmonella enterica serovar Typhimurium); experiment: EMSA; conditions: EMSA: 25 mM Tris-HCl pH 8.0, 50 mM KCl, 0.5 mM EDTA, 10% glycerol, 37 C 30 min, gel at 4 C; SPR: Biacore 2000, streptavidin chip, buffer not given
# PhoP WT = PhoP WT (Salmonella enterica serovar Typhimurium, UniProt D0ZV90 1-224); experiment: SPR; 0.3-1 uM PhoP; response 2.3-fold (0.6 uM) and 4.0-fold (1 uM) of that at 0.3 uM; EMSA: 25 mM Tris-HCl pH 8.0, 50 mM KCl, 0.5 mM EDTA, 10% glycerol, 37 C 30 min, gel at 4 C; SPR: Biacore 2000, streptavidin chip, buffer not given; conditions: protein: recombinant; tags: C-terminal 6xHis; chain copies: 2; label: 5'-biotin on strand 1; blunt
Molecule,binding [1],binding [2],binding [3],binding [4],binding result (PhoP WT)
ATCCTCTACAACCAGTACGCGCATCATCTCTTCTCCCTTGTGTTAACAATAAGAACAGTCTAGCGTTGATTATGGTGCTTTGGGGATAAACAGTTAATAAACCAGACAAATAGTCACCCTCTTTCTGAAGAAAAGAGGGTGAGGCAGGCATTATTTAAGTTCGTCGACCAGAGTCACAGCGCGA (double strand) [phoP promoter 184 bp],binds more weakly,binds,binds more weakly,binds,
B1,,,,,binds
